# Assay results published in patent publication USRE41461E1, “Purification, composition and specificity of Heparinase I, II, and III from Flavobacterium heparinum” (Massachusetts Institute of Technology, priority 1992, dated 2010).
# Key:
# [1] = Temperature stability of lyase activity; type: physicochemical; conditions: 30° C., protein 650 ng/ml
# Method: Lyase assay stock solutions were prepared in the appropriate buffer and placed in water baths at the following temperatures: heparin lyase I at 30° C., heparin lyase II at 35° C., and heparin lyase III at both 35° and 40° C. […]
# [2] = Isoelectric focusing on agarose gel; type: physicochemical; conditions: agarose IEF
# Method: IEF gel electrophoresis was run on pre-cast agarose gels (85×100 mm). Two electrode wicks were wetted with 1M phosphoric acid (anolyte) and 1M sodium hydroxide (catholyte). Electrophoresis was at 5 watts for 5 min, then at 10 watts for 1 h until the voltage was constant at 1200 V. The gel was immediately fixed in 15% aqueous trichloroacetic acid, blotted and rinsed with water, dried overnight, stained by using Coomassie G-250, and destained.
# [3] = Heparin lyase activity assay (change of absorbance at 232 nm), heparin as substrate; type: biochemical, porcine
# Method: (§1) The spectrophotometer was adjusted to the optimum temperature of the particular lyase being assayed. […] A measured quantity of lyase was added, bringing the final volume to 400 μl and the cuvette was gently mixed. The microcuvette was then immediately returned to the spectrophotometer and the change of absorbance at 232 nm was measured at 10 seconds intervals over 3 min. […] The specific activity was then calculated by dividing the micromoles of product produced per minute by the milligrams of protein in the cuvette. […] G., and Linhardt, R. J. (1989) Carbohydr. Res. 190, 219-233. Protein concentration was measured by the Bradford assay, Bradford, M. M. (1976) Anal. Biochem. 72, 248-254, based on a bovine serum albumin standard curve. […] The activities of each lyase (I acting on heparin, II acting on both heparin and heparan sulfate, and III acting on heparan sulfate) were then determined at different pH values. The buffer giving optimum activity for each heparin lyase was selected by testing buffers with buffering capacity near the pH optima calculated in the previous experiments. These buffers were: Tris-HCl, sodium phosphate, HEPES, MOPS, TES, and BTP-CHl. […] The heparin lyase assay solutions were made by diluting enzyme in 50 mM sodium phosphate buffer adjusted to the appropriate pH as previously described. Heparin lyase activity was determined in each buffer. Activity was assayed both immediately after addition to each buffer and following incubation for 24 h at 37° C. The salt concentration for optimum activity was investigated. Sodium chloride, potassium chloride, and sodium and potassium acetate were used to differentiate between ionic strength and specific ion affects. […] The temperature was adjusted in a temperature-regulated spectrophotometer and equilibrated for 10 min before the assay was started. Michaelis-Menten constants were determined using the optimized conditions. The final absorbance value for total depolymerization was divided by 20 to find a value that represented 5% reaction completion. The purified lyase preparations were diluted so that 5% of total depolymerization would be reached only at the end of a 3-min assay. The reaction velocities at specific molar concentrations for each lyase and their substrates were used for kinetic analysis using EZ-FIT hyperbolic curve-fitting program of […]. (1988) Anal. Biochem. 174, 437-447). Substrate solutions were prepared from 50 mg/ml heparin and 40 mg/ml for heparan sulfate stock solutions. […] The amount of purified lyase used was sufficient for complete depolymerization of heparin or heparan sulfate substrates within 30 min. The initial rate of depolymerization of each polysaccharide was measured, the reaction was then continued for 24 h, and the final level of polysaccharide depolymerization was assessed by measuring the final absorbance at 232 nm and expressed as percent activity.
# [4] = Heparin lyase activity: effect of divalent metals and added salt, substrate specificity (each lyase on its substrates); type: biochemical
# Method: The spectrophotometer was adjusted to the optimum temperature of the particular lyase being assayed. A 700 μl quartz microcuvette containing 400 μg of substrate in 50 mM sodium phosphate buffer (containing 100 mM sodium chloride for heparin lyase I) was thermally equilibrated. A measured quantity of lyase was added, bringing the final volume to 400 μl and the cuvette was gently mixed. The microcuvette was then immediately returned to the spectrophotometer and the change of absorbance at 232 nm was measured at 10 seconds intervals over 3 min. The activity was measured from the change of absorbance/unit time using an extinction coefficient of 3800 M^−1 for products. The specific activity was then calculated by dividing the micromoles of product produced per minute by the milligrams of protein in the cuvette. The molecular weights used for heparin, heparan sulfate, and the chondroitin sulfates were 14,000, 20,000 and 25,000, respectively, Rice, K. G., and Linhardt, R. J. (1989) Carbohydr. Res. 190, 219-233. Protein concentration was measured by the Bradford assay, Bradford, M. M. (1976) Anal. Biochem. 72, 248-254, based on a bovine serum albumin standard curve.
# BTP-HCl buffer (50 mM) was prepared containing either 10 mM calcium chloride, 10 μM or 1 mM copper (II) chloride, 10 μM and 1 mM mercury (II) chloride, and 1 mM zinc (II) chloride. Each solution was adjusted to the optimum pH for the lyase being tested, and the activity of the heparin lyases was measured in the presence and absence of divalent metals.
# The salt concentration for optimum activity was investigated. Sodium chloride, potassium chloride, and sodium and potassium acetate were used to differentiate between ionic strength and specific ion affects. Added salt concentrations varied between 0 and 500 mM and were prepared in 50 mM sodium phosphate buffer after which the pH was adjusted to each enzyme's optimum and the heparin lyase activity was measured.
# Each heparin lyase was added to a solution of complex polysaccharides (1 mg/ml) under optimized assay conditions, and the reaction was monitored at 232 nm for 30 min. The amount of purified lyase used was sufficient for complete depolymerization of heparin or heparan sulfate substrates within 30 min. The initial rate of depolymerization of each polysaccharide was measured, the reaction was then continued for 24 h, and the final level of polysaccharide depolymerization was assessed by measuring the final absorbance at 232 nm and expressed as percent activity.
# [5] = Heparin lyase activity assay (change of absorbance at 232 nm), heparan sulfate as substrate; type: biochemical; conditions: final level of depolymerization, 24 h
# Method: as §1
# [6] = cited from earlier work
# [7] = Stability toward storage, freeze thawing and lyophilization; type: physicochemical; conditions: for activity retained: absence of excipient
# Method: […] […] These lyase solutions were then divided into 3 equal aliquots, and one of each was subjected to either freeze thawing, lyophilization, or retained as a control in an ice bath. The activities of heparin lyases I-III were determined in the presence and absence of excipients after: 1) brief storage at 4° C.; 2) freezing at −70° C. and thawing; and 3) −70° C. freezing, lyophilization, and reconstituting with an equal volume of cold water.
# [8] = Activity remaining after incubation in buffers for 24 h at 37° C.; type: physicochemical; conditions: each of six buffers
# Method: The buffer giving optimum activity for each heparin lyase was selected by testing buffers with buffering capacity near the pH optima calculated in the previous experiments. These buffers were: Tris-HCl, sodium phosphate, HEPES, MOPS, TES, and BTP-CHl. Each buffer was prepared at 50 mM, and its pH was adjusted with hydrochloric acid or sodium hydroxide to 6.9 for heparin lyase II acting on heparin, 7.15 for heparin lyase I, 7.3 for heparin lyase II acting on heparan sulfate, and 7.6 for heparin lyase III. The heparin lyase assay solutions were made by diluting enzyme in 50 mM sodium phosphate buffer adjusted to the appropriate pH as previously described. Heparin lyase activity was determined in each buffer. Activity was assayed both immediately after addition to each buffer and following incubation for 24 h at 37° C.
molecule,measurement,setting,value
"Heparin lyase I: heparin lyase I (heparinase, EC 4.2.2.7) purified to homogeneity from Flavobacterium heparinum (protein, UniProt Q05819 22-384, looked up) Heparin lyase I: QQKKSGNIPYRVNVQADSAKQKAIIDNKWVAVGINKPYALQYDDKLRFNGKPSYRFELKAEDNSLEGYAAGETKGRTELSYSYATTNDFKKFPPSVYQNAQKLKTVYHYGKGICEQGSSRSYTFSVYIPSSFPDNATTIFAQWHGAPSRTLVATPEGEIKTLSIEEFLALYDRMIFKKNIAHDKVEKKDKDGKITYVAGKPNGWKVEQGGYPTLAFGFSKGYFYIKANSDRQWLTDKADRNNANPENSEVMKPYSSEYKTSTIAYKMPFAQFPKDCWITFDVAIDWTKYGKEANTILKPGKLDVMMTYTKNKKPQKAHIVNQQEILIGRNDDDGYYFKFGIYRVGNSTVPVTYNLSGYSETAR",time in which 80% of activity was lost,[1],5 h
same,pI (isoelectric point),[2],9.1-9.2
same,added salt concentration (ionic strength) for optimum activity,[3]; 0-500 mM salt in 50 mM sodium phosphate buffer,100 mM
same,Unit/mg (specific activity),"[3]; final GPC-HPLC purification step, acting on heparin",130 Unit/mg
same,average number of sites acted at in the heparin polymer,"[3]; final level of depolymerization, 24 h",7 sites
same,"initial activity in six buffers (Tris-HCl, sodium phosphate, HEPES, MOPS, TES, BTP-HCl)","[3]; heparin, 50 mM buffer at optimum pH","reduced activity in MOPS, TES, and HEPES"
same,temperature for maximum activity,"[3]; heparin, 50 mM sodium phosphate at optimum pH, 15-55° C.",35 °C
same,Km,"[3]; heparin, I: 30° C., pH 7.15, 100 mM sodium chloride, II: 35° C., pH 7.3, value ± standard error, read-out: Km(app)",17.8 ± 1.5 µM
same,Vmax,"[3]; heparin, optimized conditions, value ± standard error",219 ± 3.48 μmol/min mg protein
same,pH optimum for activity,[3]; on heparin,7.15
same,specific activity,"[3]; purified lyase, toward heparin",130 units/mg
same,substrates acted on,[4],act on both heparin and heparan sulfate
same,effect of mercury on activity,[4]; 10 μM mercury (II) chloride,markedly reduced
same,effect of copper on activity,[4]; 1 mM copper (II) chloride,markedly reduced
same,effect of mercury on activity,[4]; 1 mM mercury (II) chloride,markedly reduced
same,effect of zinc on activity,[4]; 1 mM zinc (II) chloride,slightly reduced
same,effect of calcium on activity (increase),"[4]; 10 mM calcium chloride, 50 mM BTP-HCl",30%
same,effect of added salt on activity,"[4]; increasing salt concentration, 0-500 mM",increased activity
same,average number of sites acted at in the heparan sulfate polymer,[5],5 sites
same,pH optimum (reported),"[6]; Yang et al. (1985), Linker and co-workers, assay times up to 6 h",6.5
same,Vmax (reported),[6]; literature,19.7 μmol/min/mg protein
same,activity retained,[7]; after a single freeze-thawing,45%
same,activity retained,[7]; after freeze-drying,25%
same,activity retained,[7]; stored at 4° C.,50%
same,retention of activity,[7]; addition of 2.0 mg/ml BSA,greater than 85%
same,retention of activity,[7]; addition of 5% lactose,40-80%
same,"activity after incubation, % of initial value",[8],1-20%
